In US20240218054A1 (MABLOC, published 2024):

T1: recombinant YFV-17D DIII protein (Yellow fever virus, strain 17D, UniProt P03314 578-682)
T1 construct: also called domain III
T1 sequence: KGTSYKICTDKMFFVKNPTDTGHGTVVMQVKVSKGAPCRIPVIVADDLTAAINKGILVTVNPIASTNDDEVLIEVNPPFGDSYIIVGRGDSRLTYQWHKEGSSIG

B1: ADI-45075 (antibody, V domains shown)
VH: EVQLLESGGGLVQPGGSLRLSCAASGFTFSSYAMSWVRQAPGKGLEWVSVISDSGGSTYYADSVKGRFTISRDNSKNTLYLQMNSLRAEDTAVYYCAKDLRGVGGWYYFDYWGQGTLVTVSS
VL: EIVLTQSPSSLSASVGDRVTITCQASQDISNFLNWYQQKPGKAPKLLIYDASSLETGVPSRFSGSGSGTDFTFTISSLQPEDIATYYCQQYDNLPLTFGGGTKLEIK
notes: full-length IgG; also called Antibody Number 45
B2: ADI-45113 (antibody, V domains shown)
VH: QVQLVQSGGGLVQPGGSLRLSCAASGFTFSSYAMSWVRQAPGKGLEWVSAISGSGGSTYYADSVKGRFTISRDNSKNTLHLQMSSLRAEDTAVYYCAKDPKYSSGWWAFDYWGQGTLVTVSS
VL: EIVMTQSPATLSVSPGERATLSCRASQSVSSNLAWYQQKPGQAPRLLIYGASTRATGIPARFSGSGSGTEFTLTISSLQSEDFALYYCQQYDDWPLFGQGTRLEIK
notes: full-length IgG; also called Antibody Number 20
B3: ADI-49147 (antibody, V domains shown)
VH: QVQLQESGGDLVQPGGSLRLSCAASGFTFSNYAMNWVRQAPGKGLEWVSAINRGGDSTYYADSVKGRFTISRDNSKNTLYLQMNSLRAEDTAVYYCAKDHGGKYGWWYFDLWGRGTLVTVSS
VL: DIRVTQSPATLSVSPGERATLSCRASQSVSSNLAWYQQKPGQAPRLLIYDASNRATGIPVRFSGSGSGTDFTLTISSLQSEDFAVYYCQQYDNWPLTFGGGTKVEIK
notes: full-length IgG; also called Antibody Number 2
B4: ADI-45090 (antibody, V domains shown)
VH: EVQLVESGGGLVQPGRPLRLSCAASGFAFSSYGMHWVRQAPGKGLEWVALIRFDGTIKYYADSVKGRFTISRDNAKNTLYLQMSSLRAEDTAVYYCARDLEVGAEYLYYHYGMDVWGQGTTVTVSS
VL: QPVLTQPPSASGTPGQRVTIFCSGSRSNIGTYTINWYQKLPGTAPKLLIYSNNRGPSGVPDRFSGSQSGTSASLAISGLQPEDEADYYCAAWDDSLNGWVFGGGTKVTVL
notes: full-length IgG; also called Antibody Number 4

Legend:
[1] = target: T2, recombinant YFV E protein (soluble E, sE; YFV Asibi strain) (Yellow fever virus, Asibi strain, UniProt Q6DV88 286-678); test: BLI monovalent (IgG on tip)
T2 construct: also called YFV E antigen; YFV E monomer
T2 sequence (Q6DV88 286-678): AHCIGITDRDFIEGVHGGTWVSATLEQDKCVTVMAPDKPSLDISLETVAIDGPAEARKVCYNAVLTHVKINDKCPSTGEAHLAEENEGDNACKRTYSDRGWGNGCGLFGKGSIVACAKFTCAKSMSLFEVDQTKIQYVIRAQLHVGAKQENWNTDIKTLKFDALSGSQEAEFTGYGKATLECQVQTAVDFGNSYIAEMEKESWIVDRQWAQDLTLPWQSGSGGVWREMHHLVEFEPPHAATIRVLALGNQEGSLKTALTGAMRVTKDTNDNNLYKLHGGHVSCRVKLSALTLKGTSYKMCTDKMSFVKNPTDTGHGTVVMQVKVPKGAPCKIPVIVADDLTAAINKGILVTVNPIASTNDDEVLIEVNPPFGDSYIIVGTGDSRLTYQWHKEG

[2] = target: T1, recombinant YFV-17D DIII protein; test: BLI, recombinant YFV-17D DIII protein

Binder | Kd [1] [nM] | binding result [2]
B1 | 26.1 | binds
B2 | 253 | binds
B3 | 3.73 | binds
B4 | 2.11 | binds
